US20050233406A1, “Methods for high resolution identification of solvent accessible amide hydrogens in polypeptides and for characterization of polypeptide structure” (priority 2002, published 2005)

Target: T1, RIIα isoform of PKA (regulatory subunit) (Mus musculus, UniProt P12367)
T1 construct: made in house; host or cells: E. coli BL21 (DE3)
Experiment: Surface plasmon resonance binding of D-AKAP2 to immobilized RIIα (BIAcore 3000)
Design: species or system murine
Conditions: 1:1 binding model, average of three replicates, read-out: Kd (dissociation constant)
Protocol: FIG. 2 depicts the binding of D-AKAP2 to the regulatory subunit (RIIα) of PKA as determined using surface plasmon resonance. A total of 450 response units of RIIα were immobilized to a cAMP sensor chip. Serial dilutions (250-2 nM) of D-AKAP2 were injected over the surface. Both the one rate (kon) and the off rate (koff) were fit globally using the concentration series. A 1:1 binding model fits the data well and is illustrated as a bold line.
Binding of RIIa to D-AKAP2 was performed using a BIAcore 3000 (BIAcore). The regulatory subunit of PKA was immobilized to a CM5 chip (BIAcore) as described (Herberg et al., J. Mol. Biol., 298:329-339, 2000). […]
To evaluate the functional properties of this protein, binding of D-AKAP2 to the RIIα isoform of PKA was examined using surface plasmon resonance (Herberg et al., J. Mol. Biol. 298:329-339, 2000). […] D-AKAP2 was injected over the surface at varying concentrations and the affinity determined by fitting the curves to a 1:1 binding model (see FIG. 2).

T1 sequence (P12367 whole entry, canonical isoform): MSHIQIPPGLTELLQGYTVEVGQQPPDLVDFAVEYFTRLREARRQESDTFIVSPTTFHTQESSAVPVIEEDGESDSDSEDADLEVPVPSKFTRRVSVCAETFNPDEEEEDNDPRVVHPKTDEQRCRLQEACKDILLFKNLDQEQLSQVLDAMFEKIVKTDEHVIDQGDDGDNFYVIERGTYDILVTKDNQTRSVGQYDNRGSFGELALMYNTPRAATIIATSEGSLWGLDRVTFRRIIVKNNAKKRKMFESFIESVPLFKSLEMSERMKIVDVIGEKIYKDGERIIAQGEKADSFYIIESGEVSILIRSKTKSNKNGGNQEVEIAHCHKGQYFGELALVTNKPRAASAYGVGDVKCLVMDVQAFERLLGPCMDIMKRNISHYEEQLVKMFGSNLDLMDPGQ

Kd: 2 nM
Substance: AKB domain alone: PKA kinase binding (AKB) domain of D-AKAP2 (residues 336-360), tested alone without the rest of the protein (DPNCFVLAQAVVFSAMEQEHFSEFL; UniProt O88845 336-360, looked up, fragment)
